Experimental data as given in patent publication US20240002497A1 (Merck Sharp & Dohme, published 2024).
Like-named read-outs stand apart in the source and are kept apart here.

How the values were obtained:
[1] = target: T1, muNav1.7α (murine Nav1.7α) (murine, UniProt Q62205 1-1984); assay: binding FACS; minus = lower activity than reference
T1 construct: HEK Jmp-In cells

[2] = target: T2, huNav1.7α + β1-β2-β3 (human Nav1.7α co-expressed with Navβ1, Navβ2 and Navβ3) (human); assay: as above
T2 construct: also called huNav1.7-beta1-beta2-beta3

[3] = target: T1, muNav1.7α (murine Nav1.7α); assay: binding FACS; plus = higher activity than reference
[4] = target: T3, rhNav1.7α + β1-β2-β3 (rhesus Nav1.7α co-expressed with Navβ1, Navβ2 and Navβ3) (rhesus monkey); assay: as above
T3 construct: also called rhNav1.7-beta1-beta2-beta3

[5] = target: T4, huNav1.7α + β1-β2-β3 (human Nav1.7α co-expressed with human Navβ1, Navβ2 and Navβ3 on cells) (human); assay: binding FACS, CHO FlpIn cells
T4 construct: also called huNav1.7-beta1-beta2-beta3; CHO FlpIn huNav1.7α + β1-β2-β3
Summary of the method: (§1)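 Assessment used purified FLAG3-tagged ISVD incubated on cells for 30 minutes at 4° C in PBS containing 10% FBS and NaN₃, with cells washed between steps. Propidium iodide (1 μg/mL) staining removed dead cells from analysis.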

[6] = target: T5, rhNav1.7α + β1-β2-β3 (rhesus Nav1.7α co-expressed with Navβ1, Navβ2 and Navβ3 on cells) (rhesus monkey (α subunit); β subunits …); assay: binding FACS, CHO FlpIn cells
T5 construct: also called rhNav1.7-beta1-beta2-beta3; CHO FlpIn rhNav1.7α + β1-β2-β3
Summary of the method: as §1

[7] = target: T5, rhNav1.7α + β1-β2-β3 (rhesus Nav1.7α …); assay: cell-based or functional assay
[8] = target: huNav1.7α + β1 on HEK cells (human, UniProt Q15858 1-1988; Q07699 19-218); assay: cell-based or functional assay
[9] = target: T4, huNav1.7α + β1-β2-β3 (human Nav1.7α …); assay: binding FACS, CHO FlpIn cells; remark: listed apart in the source
Protocol: (§2) Binding of the ISVDs to cell-expressed Nav1.7α was detected via murine anti-Flag (Sigma, catalog #F1804). Briefly, cells were resuspended in FACS buffer (PBS, 10% FBS, NaN₃) and transferred to a 96-well V-bottom plate at 1×10^5 cells/well. Purified FLAG3-tagged ISVD was diluted in FACS buffer and added to the cells for 30 minutes at 4° C. […] Prior to the read-out, the samples were resuspended in 1 μg/mL propidium iodide (Sigma, catalog #P4170) to exclude dead cells. Between each step, the cells were centrifuged for 5 minutes at 200 grams and washed with 100 μL/well FACS buffer.

[10] = target: T5, rhNav1.7α + β1-β2-β3 (rhesus Nav1.7α …); assay: binding FACS, CHO FlpIn cells; remark: listed apart in the source
Protocol: as §2

[11] = target: T6, huNav157 chimera 14 + β1-β2-β3 (human); assay: binding FACS, HEK FlpIn cells
T6 construct: Chimera of huNav1.7α (extracellular loops and transmembrane helices) and huNav1.5α (intracellular loops); also called Nav157ch14-β1-β2-β3; huNav157 chimera 14-beta1-beta2-beta3

huNav157 chimera 14 [12] = target: T7, huNav157 chimera 14 (human); assay: binding FACS, HEK FlpIn cells
T7 construct: Chimera without β subunits; also called Nav157ch14

[13] = target: T8, huNav1.7α (human Nav1.7 alpha subunit, expressed without β subunits) (human, UniProt Q15858 1-1988); assay: binding FACS, HEKa cells
T8 construct: also called HEK293 human Nav1.7α; HEKa Nav1.7α

[14] = target: T6, huNav157 chimera 14 + β1-β2-β3; assay: binding FACS, HEK FlpIn cells; remark: listed apart in the source
huNav157 chimera 14 [15] = target: T7, huNav157 chimera 14; assay: binding FACS, HEK FlpIn cells; remark: listed apart in the source
[16] = target: T9, huNav1.7α + β1 (human Nav1.7α co-expressed with Navβ1) (human, UniProt Q15858 1-1988; Q07699 19-218); assay: cell-based or functional assay
[17] = target: T8, huNav1.7α (human Nav1.7 alpha subunit, …); assay: binding FACS, HEKa cells; remark: listed apart in the source
[18] = target: T9, huNav1.7α + β1 (human Nav1.7α …); assay: binding FACS, HEKa/β1 cells
[19] = target: T9, huNav1.7α + β1 (human Nav1.7α …); assay: binding FACS, HEKa/β1 cells; remark: listed apart in the source
[20] = target: T8, huNav1.7α (human Nav1.7 alpha subunit, …); assay: binding FACS, huNav1.7α without β; minus = weaker than reference
[21] = target: T8, huNav1.7α (human Nav1.7 alpha subunit, …); assay: binding FACS, huNav1.7α without β; minus = lower than reference
rhNav1.7α + β1-β2-β3 [22] = target: rhNav1.7α + β1-β2-β3 (rhesus monkey); assay: cell-based or functional assay
huNav1.7α + β1 [23] = target: huNav1.7α + β1 (human); assay: cell-based or functional assay
huNav1.7α + β1-β2-β3 [24] = target: T10, huNav1.7α + β1-β2-β3 (human, UniProt Q15858 1-1988; A5A6L6 19-218; O60939 30-215; Q2KI11 23-215); assay: binding FACS, CHO FlpIn
T10 construct: also called huNav1.7-beta1-beta2-beta3; huNav1.7-β1-β2-β3
Summary of the method: as §1

rhNav1.7α + β1-β2-β3 [25] = target: T11, rhNav1.7α + β1-β2-β3 (rhesus monkey); assay: binding FACS, CHO FlpIn
T11 construct: also called rhNav1.7-beta1-beta2-beta3; rhNav1.7-β1-β2-β3
Summary of the method: as §1

huNav1.7α + β1-β2-β3 [26] = target: T10, huNav1.7α + β1-β2-β3; assay: binding FACS, CHO FlpIn; remark: listed apart in the source
Protocol: as §2

rhNav1.7α + β1-β2-β3 [27] = target: T11, rhNav1.7α + β1-β2-β3; assay: binding FACS, CHO FlpIn; remark: listed apart in the source
Protocol: as §2

rhNav1.7α + β1-β2-β3 [28] = target: T11, rhNav1.7α + β1-β2-β3; assay: cell-based or functional assay; remark: listed apart in the source
huNav1.7α + β1 [29] = target: huNav1.7α + β1 (human); assay: cell-based or functional assay; remark: listed apart in the source
muNav1.7α [30] = target: T12, muNav1.7α (murine, UniProt Q62205 1-1984); assay: binding FACS, HEK JmpIn
T12 construct: HEK JmpIn cells; also called murine Nav1.7α

muNav1.7α [31] = target: T12, muNav1.7α; assay: binding FACS, HEK JmpIn; remark: listed apart in the source
Protocol: as §2

rhNav1.7α + β1-β2-β3 [32] = target: T11, rhNav1.7α + β1-β2-β3; assay: cell-based or functional assay; remark: listed apart in the source
huNav1.7α + β1 [33] = target: huNav1.7α + β1 (human); assay: cell-based or functional assay; remark: listed apart in the source
huNav1.7α + β1-β2-β3 [34] = target: T10, huNav1.7α + β1-β2-β3; assay: competition FACS vs EC25 of 275B05(N93R), CHO FlpIn
rhNav1.7α + β1-β2-β3 [35] = target: T11, rhNav1.7α + β1-β2-β3; assay: as above

B1: F010301877 (VHH)
VHH: EVQLVESGGGVVQPGGSLRLSCATTSRAFIRDVFTGWYRRVPGKERELVARIYNGGNTNYADFAKGRFTISRDNAKNMVYLQMNSLRPEDTALYYCLFSGTINTGREYRSGDYWGQGTLVTVSS
notes: also called F0103464B09(L11V, S68T, K76N, T79Y, R81Q, S82aN, N82bS, K83R, G88A, V89L); K76N
EC50 fold change compared to reference [1]: -4 fold
EC50 fold change compared to reference [2]: -2 fold

B2: F010301893 (VHH)
VHH: EVQLVESGGGVVQPGGSLRLSCATTSRAFIRDVFTGWYRRVPGKQRELVARIYNGGNTNYADFAKGRFTISRDNAKKMVYLQMNSLRPEDTALYYCLFSGTINTGREYRSGDYWGQGTLVTVSS
notes: also called F0103464B09(L11V, E44Q, S68T, T79Y, R81Q, S82aN, N82bS, K83R, G88A, V89L); E44Q
EC50 fold change compared to reference [3]: 3 fold
EC50 fold change compared to reference [4]: 3 fold

B3: F010302383 (VHH)
VHH: EVQLVESGGGVVQPGGSLRLSCAASGPVFNINRMAWYRQAPGKQRELVAYVTPTGDISYADSVKGRFTISRGGSKRVYLQMNSLRPEDTALYYCRALLQPSSYSGTRTYWGQGTLVTVSS
notes: also called F0103387G04(L11V, A12V, K33R, R39Q, S50Y, S56D, T60A, D72G, W78V, S79Y, T83R, V89L, N93R, D99S, N100cG) + FLAG3-HIS6
Bmax [5]: 100%
EC50 [5]: 6.8 nM
Bmax [6]: 100%
EC50 [6]: 4.5 nM
IC50 [M], in vitro electrophysiology, HEK rhNav1.7α + β1-β2-β3 [7]: 3e-09 M
IC50 [M], in vitro electrophysiology, HEK huNav1.7α + β1 [8]: 2.2e-08 M
EC50 [9]: 6.8 nM
EC50 [10]: 4.5 nM

B4: F010302391 (VHH)
VHH: EVQLVESGGGVVQPGGSLRLSCAASGRILRIGYMRWYRQAPGKQREFVARITGGSATGYADSVKGRFTISRDNAKNTVYLQMNSLRPEDTALYYCEALVTASVRGGSIHSGTYWGQGTLVTVSS
notes: also called F0103387G05(L11V, A14P, D23A, H37Y, G40A, A41P, D53G, D54G, D58G, N82bS, N83R, V89L, R105Q)-FLAG3-HIS6
EC50 [11]: 2.3 nM
EC50 (huNav157 chimera 14 [12]): 2.7 nM
Bmax [13]: 100%
EC50 [13]: 1.9 nM
EC50 [14]: 2.3 nM
Bmax (huNav157 chimera 14 [15]): 100%
EC50 (huNav157 chimera 14 [15]): 2.7 nM
IC50 [M], electrophysiology on HEK huNav1.7α + β1 cells [16]: 3.2e-08 M
EC50 [17]: 1.9 nM
EC50 [18]: 2 nM
EC50 [19]: 2 nM

B5: F010301648 (VHH)
VHH: EVQLVESGGGVVQPGGSLRLSCDASGRILRIGYMRWHRQGAGKQREFVARITDDSATDYADSVKGRFTISRDNAKNTVYLQMNSLRPEDTALYYCNALVTASVRGGSIHSGTYWGQGTLVTVSS
notes: also called F0103387G05(L11V, A14P, N82bS, N83R, V89L, E93N, R105Q); E93N
Bmax [13]: 25%
EC50 [13]: 89 nM
EC50 fold change compared to reference [20]: -20 fold
EC50 [14]: 3.4 nM
Bmax (huNav157 chimera 14 [15]): 30%
EC50 (huNav157 chimera 14 [15]): 210 nM
EC50 [18]: 3.2 nM
Bmax fold change compared to reference [21]: -4 fold

B6: F010302363 (VHH)
VHH: EVQLVESGGGVVQPGGSLRLSCAASHRAFIRDVFTGWYRQAPGKQRELVARIYEGGNTQYADSVKGRFTISRDNAKKTVYLQMNSLRPEDTALYYCLFSGTISTGREYRSGDYWGQGTLVTVSS
Qpatch IC50 (rhNav1.7α + β1-β2-β3 [22]): 166 nM
Qpatch IC50 (huNav1.7α + β1 [23]): 7 nM
Bmax (huNav1.7α + β1-β2-β3 [24]): 100%
EC50 (huNav1.7α + β1-β2-β3 [24]): 4.2 nM
Bmax (rhNav1.7α + β1-β2-β3 [25]): 96%
EC50 (rhNav1.7α + β1-β2-β3 [25]): 9.3 nM
EC50 (huNav1.7α + β1-β2-β3 [26]): 4.2 nM
EC50 (rhNav1.7α + β1-β2-β3 [27]): 9.3 nM
IC50 [M], electrophysiology, HEK cells (rhNav1.7α + β1-β2-β3 [28]): 3.6e-08 M
IC50 [M], electrophysiology, HEK cells (huNav1.7α + β1 [29]): 1.1e-08 M
EC50 (muNav1.7α [30]): 48 nM
Bmax (muNav1.7α [31]): 18%
EC50 (muNav1.7α [31]): 48 nM

B7: F010301452 (VHH)
VHH: EVQLVESGGGLVQPGGSLRLSCAASGPVFNINSMAWYRRAPGKQRELVAYSTPGWDWNYADSVKGRFTISRDNAKRVYLQMNSLTPEDTAVYYCRWLLQPSIYDISRTYWGQGTLVTVSS
notes: Tagless version of F010300659 by its description; also called F0103275B05(S27P, I28V, S50Y, N53P, G55W, S56D, T57W, N93R, A94W)
QPatch electrophysiology IC50 [M], HEK cells (rhNav1.7α + β1-β2-β3 [32]): 1.8e-08 M
QPatch electrophysiology IC50 [M], HEK cells (huNav1.7α + β1 [33]): 2.1e-08 M
IC50 (huNav1.7α + β1-β2-β3 [34]): 30 nM
IC50 (rhNav1.7α + β1-β2-β3 [35]): 16 nM
